Read-outs that look alike come from different tables or passages of the source. Where a SMILES comes first, the peptide text is derived from it. Bridges are numbered along the chain shown (N, C = ends). Where no end group is shown, it is not given here.
Columns and labels:
[1] = Solubility in water / PBS
Procedure: The oligonucleotide was made double-stranded using PCR. The PCR product was digested with PstI and SapI and cloned to TWIN2 intein vector (New England Biolabs), digested also with PstI and SapI. This DNA construct was electroporated into MC1061 competent cells. […] The plasmid vectors were extracted from the pool of at least 216 independent clones of MC1061. The plasmids were then electroporated to ER2566 cells enabling the production of inteins. The cells harboring the plasmids were plated on LB plates containing ampicillin. 10 independent clones were pooled to one single pool. These 10 clones in one pool were cultured and the peptides were expressed and purified with chitin affinity column and reverse-phase C18 column. Each pool of peptides was tested for activity. The solubility in PBS was also tested. […] The plasmid coding for this peptide was sequenced and the peptide was synthesized with chemical synthesis.

[2] = target: T1, gelatinase A (MMP-2) (Homo sapiens, UniProt P08253); assay: Inhibition of gelatinase A by hydrophilic CTT library peptides; format: biochemical; details: FIG. 5
T1 construct: purchased Roche
T1 sequence (P08253 110-660): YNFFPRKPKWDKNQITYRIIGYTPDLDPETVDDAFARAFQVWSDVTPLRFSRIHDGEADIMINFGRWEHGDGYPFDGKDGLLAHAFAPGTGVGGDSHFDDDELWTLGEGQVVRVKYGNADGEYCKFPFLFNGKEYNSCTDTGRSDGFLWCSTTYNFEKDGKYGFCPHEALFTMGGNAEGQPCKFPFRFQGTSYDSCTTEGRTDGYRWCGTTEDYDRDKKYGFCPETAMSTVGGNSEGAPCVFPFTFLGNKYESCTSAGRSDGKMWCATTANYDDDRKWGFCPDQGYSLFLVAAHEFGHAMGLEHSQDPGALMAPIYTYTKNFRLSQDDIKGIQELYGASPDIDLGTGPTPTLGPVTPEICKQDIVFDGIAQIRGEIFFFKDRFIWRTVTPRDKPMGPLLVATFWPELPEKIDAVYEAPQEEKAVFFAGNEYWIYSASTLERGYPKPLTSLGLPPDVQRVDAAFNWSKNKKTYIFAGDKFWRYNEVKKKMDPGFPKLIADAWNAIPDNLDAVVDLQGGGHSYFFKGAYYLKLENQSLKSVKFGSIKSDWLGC
Source text: FIG. 5. Inhibition of gelatiaase A (MMP-2) with CTT-peptide, with pool 1 and pool 2, both containing 10 different peptide derivates of CTT. The library contains 216 different combinations of CTT peptide derivates. Clone 4 from pool 1 and clone 7 from pool 2 were purified and tested also for their inhibition activity against gelatinase A.
(§1) Gelatinase inhibition assays. Gelatiases proMMP-2 and proMMP-9 (Roche) were activated with p-aminophenylmercuric acetate or trypsin, respectively, and then incubated in the presence or absence of each peptide to be tested for 30 min. The gelatinase inhibitory activity was determined using the following three assays: (i) The degradation of biotinylated gelatin was examined using a gelatinase activity kit according to the manufacturer's instructions. (Roche). (ii) The degradation of a MMP-2 specific fluorescent peptide substrate MCA-Pro-Leu-Ala-Nva-Dpa-Ala-Arg-NH2 (Calbiochem) (2.5 μM final concentration) was followed using MOS-250 spectrofluorometer (Bio-Logic SA, Claix, France) with 330 nm excitation and 390 nm emission. (iii) The degradation of β-casein was studied by incubating activated MMP-2 with 0.1 mg/ml concentration of β-casein for 2 h at 37° C., after which the samples were analyzed on a 15% SDS-PAGE gel.
The oligonucleotide was made double-stranded using PCR. […] This DNA construct was electroporated into MC1061 competent cells. […]

[3] = target: T2, MMP-2 (Homo sapiens, UniProt P08253); assay: Gelatin degradation assay (biotinylated gelatin), MMP-2; format: biochemical
T2 construct: purchased Roche
T2 sequence (P08253 110-660): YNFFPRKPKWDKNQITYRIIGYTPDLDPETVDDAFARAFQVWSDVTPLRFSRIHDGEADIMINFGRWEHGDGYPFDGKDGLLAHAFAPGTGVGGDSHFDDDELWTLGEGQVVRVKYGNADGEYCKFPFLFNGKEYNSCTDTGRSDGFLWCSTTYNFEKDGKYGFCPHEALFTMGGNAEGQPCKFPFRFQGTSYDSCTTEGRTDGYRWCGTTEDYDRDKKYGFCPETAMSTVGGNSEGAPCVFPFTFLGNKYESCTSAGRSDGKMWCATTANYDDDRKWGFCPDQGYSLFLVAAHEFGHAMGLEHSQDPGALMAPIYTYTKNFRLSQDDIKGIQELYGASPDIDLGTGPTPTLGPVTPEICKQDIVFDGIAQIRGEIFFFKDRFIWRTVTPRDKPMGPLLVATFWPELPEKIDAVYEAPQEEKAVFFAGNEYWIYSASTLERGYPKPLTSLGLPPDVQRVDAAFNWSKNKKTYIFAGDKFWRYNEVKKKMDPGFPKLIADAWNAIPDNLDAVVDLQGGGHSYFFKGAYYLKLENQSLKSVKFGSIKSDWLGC
Procedure: (§2) FIG. 1A and 1B. Inhibition of NWP-2 and MMP-9 by synthetic or intein-produced peptides. (A) MMP-9 was treated with CTT, iCTT, or STT at the peptide concentrations indicated. MMP-9 activity was determined using biotinylated gelatin. (13) The activity of the alanine mutant peptides (see Table 1) was compared to that of CTT, which inhibited MMP-2 by 100% in the gelatin degradation assay. In all assays the peptides were preincubated with the enzyme for 30 min before the substrate was added.
as §1

[4] = target: T3, MMP-9 (Homo sapiens, UniProt P14780); assay: Gelatin degradation assay (biotinylated gelatin), MMP-9; format: biochemical
T3 construct: purchased Roche
Procedure: as §2
as §1, with “(ii) The degradation of a MMP-2 specific fluorescent peptide substrate MCA-Pro-Leu-Ala-Nva-Dpa-Ala-Arg-NH2 (Calbiochem) (2.5 μM final concentration) was followed using MOS-250 spectrofluorometer (Bio-Logic SA, Claix, France) with 330 nm excitation and 390 nm emission.” left out

[5] = Peptide stability in human serum; format: in vitro ADME; details: undiluted human serum, 37° C., anti-CTT antibody dot blot
Procedure: (§3) FIG. 3A and 3B. Activity and stability of the tryptophan analogue containing CTT peptides. (A) Inhibition of MMP-2 using β-casein (21 IcDa) as substrate. The peptides (100 μM) were incubated with MMP-2 and β-casein (0.1 mg/ml) for 2 h and samples run on a 15% SDS-PAGE gel. (B) iCTT, 5F-CTT or a negative control peptide CERGGLETSC at a 150 μM concentration was incubated in undiluted human serum for the indicated time periods at 37° C. Samples were withdrawn, stored frozen and blotted on a nitrocellulose membrane. The level of CTT was quantitated using polyclonal anti-CTT antibody. The blots were scanned and the results shown are means ±SD from triplicate measurements. The results were similar in two other experiments.
Spectrometry and fluorometry. The absorbance spectrum for each peptide in the 200-375 nm range was measured in 20 mM Tris-HCl (pH 7.4)/50 mM NaCl/0.1 mM EDTA with Genesys 5 spectrophotometer (Thermo Spectronic, Rochester, N.Y.). The fluorescence spectra of the CTT phage cultured in the presence of tryptophan, 5FW or 6FW were measured from heat-denatured phages (2×10^9/ml) in 10 mM Tris-HCl (pH 7.5)/140 mM NaCl/1% SDS. The fluorescence emission spectra (average of three scans) at 300-500 nm were recorded with MOS-250 spectrofluorometer. The peptides were excited at 295 nm (bandwidth 5 nm) and the emission spectra recorded in the 300-500 nm range. Peptide stability in human serum. […]

[6] = target: T2, MMP-2; assay: β-casein degradation assay; format: biochemical; details: peptide 100 μM; β-casein 0.1 mg/ml, 2 h
Procedure: as §3
as §1, with “(ii) The degradation of a MMP-2 specific fluorescent peptide substrate MCA-Pro-Leu-Ala-Nva-Dpa-Ala-Arg-NH2 (Calbiochem) (2.5 μM final concentration) was followed using MOS-250 spectrofluorometer (Bio-Logic SA, Claix, France) with 330 nm excitation and 390 nm emission.” left out

[7] = Peptide stability in cell culture medium; format: in vitro ADME; details: cell culture medium with 10% heat-inactivated fetal calf serum
Procedure: The gelatinase inhibitory activities of the modified CTT peptides were tested in the β-casein degradation assay (FIG. 3A) and the gelatin degradation assay (data not shown). […] To determine the peptide levels, we used anti-CTT antibody that also recognized the 5F-Trp containing peptide. […] We could not determine the half-lives of 5OH-Trp and 6F-Trp containing peptides as the anti-CTT antibody recognized these peptides only weakly in the presence of serum.

[8] = target: MMP-9, activated (UniProt P14780 20-707, limits assumed); assay: cell-based or functional assay
[9] = target: T4, MMP-2 (gelatinase A), activated (UniProt P08253 30-660, limits assumed); assay: cell-based or functional assay
T4 sequence (looked up): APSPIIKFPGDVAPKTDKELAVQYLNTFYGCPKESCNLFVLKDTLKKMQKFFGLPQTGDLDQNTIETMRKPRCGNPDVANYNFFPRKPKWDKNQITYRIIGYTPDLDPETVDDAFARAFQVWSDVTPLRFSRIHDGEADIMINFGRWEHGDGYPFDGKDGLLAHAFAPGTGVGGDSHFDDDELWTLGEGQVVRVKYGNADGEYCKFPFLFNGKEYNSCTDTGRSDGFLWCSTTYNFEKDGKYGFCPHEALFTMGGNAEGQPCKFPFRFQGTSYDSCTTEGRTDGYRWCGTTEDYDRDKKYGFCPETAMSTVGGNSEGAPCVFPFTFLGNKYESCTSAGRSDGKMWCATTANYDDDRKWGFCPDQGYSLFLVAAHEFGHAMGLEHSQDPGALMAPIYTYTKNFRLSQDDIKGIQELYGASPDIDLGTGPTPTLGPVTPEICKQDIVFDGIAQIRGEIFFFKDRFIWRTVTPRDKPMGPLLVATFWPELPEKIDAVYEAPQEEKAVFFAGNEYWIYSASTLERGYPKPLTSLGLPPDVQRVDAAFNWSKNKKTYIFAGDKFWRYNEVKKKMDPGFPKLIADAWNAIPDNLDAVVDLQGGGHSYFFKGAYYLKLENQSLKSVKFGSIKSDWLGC

Chain of MMP-9, activated (P14780 20-707 limits assumed): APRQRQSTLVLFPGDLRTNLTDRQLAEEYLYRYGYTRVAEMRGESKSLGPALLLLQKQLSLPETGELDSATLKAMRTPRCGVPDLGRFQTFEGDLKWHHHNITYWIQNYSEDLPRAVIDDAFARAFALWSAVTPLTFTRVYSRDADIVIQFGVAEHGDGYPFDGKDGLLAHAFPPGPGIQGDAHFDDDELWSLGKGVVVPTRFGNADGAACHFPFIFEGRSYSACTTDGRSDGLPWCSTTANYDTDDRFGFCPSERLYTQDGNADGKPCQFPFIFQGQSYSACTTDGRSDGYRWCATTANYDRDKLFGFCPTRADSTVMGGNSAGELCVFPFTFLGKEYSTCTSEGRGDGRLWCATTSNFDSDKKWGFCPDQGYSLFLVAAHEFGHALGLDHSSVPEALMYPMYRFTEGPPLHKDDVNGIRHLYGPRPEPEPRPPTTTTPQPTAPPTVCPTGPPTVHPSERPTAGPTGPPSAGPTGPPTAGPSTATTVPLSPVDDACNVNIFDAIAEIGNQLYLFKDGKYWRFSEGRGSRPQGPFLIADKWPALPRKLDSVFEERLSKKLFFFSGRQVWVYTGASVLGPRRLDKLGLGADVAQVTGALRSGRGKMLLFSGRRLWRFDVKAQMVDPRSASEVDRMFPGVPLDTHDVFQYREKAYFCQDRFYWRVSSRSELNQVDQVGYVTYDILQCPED
T3 sequence (P14780 107-707 limits assumed): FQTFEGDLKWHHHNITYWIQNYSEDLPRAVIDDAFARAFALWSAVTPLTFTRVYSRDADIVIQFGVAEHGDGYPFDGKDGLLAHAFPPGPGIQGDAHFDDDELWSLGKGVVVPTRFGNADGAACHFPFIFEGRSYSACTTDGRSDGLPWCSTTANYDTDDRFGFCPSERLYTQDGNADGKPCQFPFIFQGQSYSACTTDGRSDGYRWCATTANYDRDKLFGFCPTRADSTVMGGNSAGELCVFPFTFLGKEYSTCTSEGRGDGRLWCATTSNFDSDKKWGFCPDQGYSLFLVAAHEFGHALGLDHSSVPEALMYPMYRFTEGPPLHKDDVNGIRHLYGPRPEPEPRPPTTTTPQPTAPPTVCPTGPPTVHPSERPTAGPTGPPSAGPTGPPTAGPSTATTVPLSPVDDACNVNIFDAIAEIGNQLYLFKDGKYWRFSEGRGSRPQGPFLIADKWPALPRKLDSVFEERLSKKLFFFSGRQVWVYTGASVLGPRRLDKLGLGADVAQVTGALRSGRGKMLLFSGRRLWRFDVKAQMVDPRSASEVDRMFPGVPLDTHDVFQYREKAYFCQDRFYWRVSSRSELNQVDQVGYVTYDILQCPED

Molecule: GRENYHGCTTRWGFTLC [tyrosine-containing CTT-peptide with additional hydrophilic amino acids, from the intein library]
- solubility ([1]; water or PBS): more soluble into water or PBS than the original peptide
- gelatinase A inhibitory activity [2]: active

Molecule: CC(C)C[C@@H]1NC(=O)[C@H]([C@@H](C)O)NC(=O)[C@H](Cc2ccccc2)NC(=O)CNC(=O)[C@H](Cc2c[nH]c3ccccc23)NC(=O)[C@H](Cc2c[nH]cn2)NC(=O)[C@H]([C@@H](C)O)NC(=O)[C@H]([C@@H](C)O)NC(=O)[C@@H](N)CSSC[C@@H](C(=O)O)NC1=O [CTT, CTTHWGFTLC] (HELM PEPTIDE1{C.T.T.H.W.G.F.T.L.C}$PEPTIDE1,PEPTIDE1,1:R3-10:R3$$$V2.0; bridges inferred)
- solubility [1]: water-soluble
- IC50 ([3]; 30 min preincubation, read-out: IC50, MMP-2 inhibition): 20 µM
- inhibition of MMP-2 ([3]; FIG. 1B): 100%
- IC50 ([4]; 30 min preincubation, read-out: IC50, MMP-9 inhibition): 20 µM

Molecule: CTTAWGFTLC (disulfide 1-10 (inferred)) [H→A, Ala-substitution of the CTT-peptide]
- % of the activity in comparison to the wild type peptide ([3]; FIG. 1B, CTT = 100% inhibition): about 80%

Molecule: CC(C)C[C@@H]1NC(=O)[C@H]([C@@H](C)O)NC(=O)[C@H](Cc2ccccc2)NC(=O)CNC(=O)[C@H](Cc2c[nH]c3ccccc23)NC(=O)[C@H](Cc2c[nH]cn2)NC(=O)[C@H]([C@@H](C)O)NC(=O)[C@H]([C@@H](C)O)NC(=O)[C@@H](N)CSSC[C@@H](C(=O)O)NC1=O [iCTT, CTTHWGFTLC] (HELM PEPTIDE1{C.T.T.H.W.G.F.T.L.C}$PEPTIDE1,PEPTIDE1,1:R3-10:R3$$$V2.0; N-terminus and C-terminus assumed)
- half-life at 150 μM [5]: 0.5 h
- inhibition of casein degradation by MMP-2 [6]: nearly complete inhibition

Molecule: CC(C)C[C@@H]1NC(=O)[C@H]([C@@H](C)O)NC(=O)[C@H](Cc2ccccc2)NC(=O)CNC(=O)[C@H](Cc2c[nH]c3ccc(F)cc23)NC(=O)[C@H](Cc2c[nH]cn2)NC(=O)[C@H]([C@@H](C)O)NC(=O)[C@H]([C@@H](C)O)NC(=O)[C@@H](N)CSSC[C@@H](C(=O)O)NC1=O [5F-Trp containing peptide, CTTH(5FW)GFTLC] (HELM PEPTIDE1{C.T.T.H.[O=C([C@H](Cc1c[nH]c2ccc(F)cc12)N[*:1])[*:2]].G.F.T.L.C}$PEPTIDE1,PEPTIDE1,1:R3-10:R3$$$V2.0; N-terminus and C-terminus assumed)
- half-life at 150 μM [5]: 3 h
- stability compared with CTT [7]: No difference

Molecule: STTHWGFTLS [non-cyclic synthetic control peptide]
- gelatinase inhibitory activity relative to iCTT ([4]; FIG. 1A): several fold less active than iCTT

Molecule: CTTHWGFTLC (disulfide 1-10 (inferred)) [CTT: CTTHWGFTLC peptide (chemically synthesized)]
- IC50, gelatin degradation assay [8]: 20 µM
- IC50, gelatin degradation assay [9]: 20 µM

Molecule: CTTHAGFTLC (disulfide 1-10 (inferred)) [W → A alanine mutant of CTT]
- activity in comparison to the wild type peptide, gelatin degradation assay [9]: 17 % of the activity of the wild type peptide

Molecule: CTTHWGFTLC (disulfide 1-10 (inferred)) [iCTT: recombinant CTTHWGFTLC peptide]
- IC50, gelatin degradation assay [8]: 20 µM
- IC50, gelatin degradation assay [9]: 20 µM

Molecule: CTTHWGATLC (disulfide 1-10 (inferred)) [F → A alanine mutant of CTT]
- activity in comparison to the wild type peptide, gelatin degradation assay [9]: 36 % of the activity of the wild type peptide

Molecule: CTTHWAFTLC (disulfide 1-10 (inferred)) [G → A alanine mutant of CTT]
- activity in comparison to the wild type peptide, gelatin degradation assay [9]: 53 % of the activity of the wild type peptide

Reference: patent US20060240510A1, “Method for designing peptides” (CTT Cancer Targeting Technologies OY, priority 2002, published 2006)
